Laboratory results as given in patent US20170107294A1, “ANTI-CD14 ANTIBODIES AND USES THEREOF” (Nordlandssykehuset HF, priority 2014, published 2017).

Legend:
complement activation = conditions: pigs; cited from earlier work
porcine whole blood [1] = test: rMil2 combined with C5 inhibitor OmCI: cytokine production in porcine whole blood ex vivo; assay type: cell-based; conditions: E. coli-incubated porcine whole blood
Description: (§1) The whole blood model has been described in detail previously (36). Fresh human venous or porcine arterial blood was drawn directly into tubes containing the anticoagulant lepirudin (Pharmion) at a final concentration of 50 mg/ml. In 1.8-ml Cryo Tube vials (Nunc, Roskilde, Denmark), the blood was preincubated with up to 20 mg/ml anti-human CD14 (r18D11 or 18D11), or 50 mg/ml anti-porcine CD14 (rMil2 or Mil2) at 37° C. for 10 min prior to an additional 2-h incubation in the presence of 100 ng/ml ultrapure LPS from Escherichia coli 0111:B4 (InvivoGen, San Diego, Calif.) for human blood or 1 3 105/ml heat-inactivated E. coli (strain LE392, ATCC33572) for porcine blood. As negative controls, PBS with MgCl2 and CaCl2 (Sigma-Aldrich) and isotype controls were used. Adverse effects were tested using nonactivated whole blood samples. After the addition of 10 mM (human) or 20 mM (porcine) EDTA, plasma was gained by 15 min centrifugation at 3220 3 g and 4° C. Levels of TNF, IL-6, and IL-1b in human plasma were determined using Bioplex technology (Bio-Rad Laboratories AB). Levels of TNF, IL-1b, and IL-8 in porcine plasma were determined using ELISA (Quantikine, R&D Systems, Minneapolis, Minn.). Platelet count was quantified by impedance using a CELL-DYN Sapphire hematology analyzer (Abbott Laboratories, Abbott Park, Ill.).
Whole blood was incubated with 1 3 106 E. coli per milliliter for 2 h at 37° C. in the absence or presence of inhibitors and controls. TNF, IL-1b, and IL-8 blood was analyzed as described above.

porcine CD14 [2] = target: T1, porcine CD14 (Sus scrofa, UniProt F6PST4); test: Leukocyte CD14 expression before and after rMil2 bolus in a piglet, flow cytometry; assay type: in vivo, Norwegian domestic piglets (Sus scrofa domesticus); parameters: endogenous in cells; conditions: after bolus dose of 5 mg/kg
T1 sequence (F6PST4 21-373): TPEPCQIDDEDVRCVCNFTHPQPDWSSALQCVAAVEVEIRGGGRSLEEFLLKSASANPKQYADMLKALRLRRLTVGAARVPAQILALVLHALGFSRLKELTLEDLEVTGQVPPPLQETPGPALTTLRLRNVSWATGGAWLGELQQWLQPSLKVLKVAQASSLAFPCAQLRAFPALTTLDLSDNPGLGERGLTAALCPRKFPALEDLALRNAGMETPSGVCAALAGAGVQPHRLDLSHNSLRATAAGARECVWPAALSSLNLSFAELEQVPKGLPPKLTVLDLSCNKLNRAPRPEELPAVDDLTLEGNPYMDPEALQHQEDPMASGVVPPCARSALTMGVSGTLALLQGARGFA
Description: In vivo application of anti-porcine CD14 Abs Norwegian domestic piglets (Sus scrofa domesticus, outbred stock) with a weight of 2.2 kg were isolated at the day of intervention. Anesthesia was induced with 5% sevoflurane in a mixture of air and oxygen until sleep. After establishment of an i.v. line, the piglets received fentanyl (15-20 mg/kg) were tracheotomized in the supine position, and a microcuffed endotracheal tube from Kimberly-Clark (Roswell, GA) with inner diameter of 4 mm was inserted. Maintenance anesthesia was provided with an infusion of fentanyl (50 mg/kg/h, and isoflurane 1-2% in oxygen-enriched air administered from a Leon plus ventilator from Heinen and Loevenstein (Bad Ems, Germany). An artery line was inserted in the right or left carotid artery for blood sampling during the experiments and for continuous measurement of mean artery pressure. The piglets were monitored with electrocardiography and pulse oximetry. Ventilator settings were adjusted to maintain 7.40 pH and oxygen saturation above 96%. Hemodynamic parameters were collected using ICUpilot software, CMA Microdialysis (Stockholm, Sweden) every 30 s. To compensate for hydration needs, the animals received a background infusion of isotonic sodium glucose solution, Salidex (Braun Medical A/S, Vestskogen, Norway) at 10 ml/kg/h. […]

[3] = tested on: E. coli-induced cytokine response; test: In vivo E. coli sepsis regimen in piglets, cytokine response; parameters: species or system Norwegian domestic piglets (Sus scrofa domesticus); conditions: bolus 5 mg/kg before i.v. E. coli; vs saline control piglet
Description: (§2) In vivo application of anti-porcine CD14 Abs Norwegian domestic piglets (Sus scrofa domesticus, outbred stock) with a weight of 2.2 kg were isolated at the day of intervention. Anesthesia was induced with 5% sevoflurane in a mixture of air and oxygen until sleep. After establishment of an i.v. line, the piglets received fentanyl (15-20 mg/kg) were tracheotomized in the supine position, and a microcuffed endotracheal tube from Kimberly-Clark (Roswell, GA) with inner diameter of 4 mm was inserted. Maintenance anesthesia was provided with an infusion of fentanyl (50 mg/kg/h, and isoflurane 1-2% in oxygen-enriched air administered from a Leon plus ventilator from Heinen and Loevenstein (Bad Ems, Germany). An artery line was inserted in the right or left carotid artery for blood sampling during the experiments and for continuous measurement of mean artery pressure. The piglets were monitored with electrocardiography and pulse oximetry. Ventilator settings were adjusted to maintain 7.40 pH and oxygen saturation above 96%. Hemodynamic parameters were collected using ICUpilot software, CMA Microdialysis (Stockholm, Sweden) every 30 s. To compensate for hydration needs, the animals received a background infusion of isotonic sodium glucose solution, Salidex (Braun Medical A/S, Vestskogen, Norway) at 10 ml/kg/h. To compare the effect of the Mil2 and the rMil2 on healthy piglets, increasing amounts of a stock solution of 1 mg/ml rMil2 or Mil2 (batch 1106) were injected i.v. into two piglets at indicated times to a maximum dose of 5.36 mg/kg, and arterial blood samples were collected, in tubes containing the anticoagulants EDTA or citrate. To investigate the biological effect of rMIL2 on the inflammatory response, two piglets underwent the E. coli sepsis regimen as described previously (17). One control piglet was gives saline, and one piglet was given a bolus dose of 5 mg/kg rMil2 before infusion of the bacteria.

[4] = parameters: species or system Norwegian domestic piglets (Sus scrofa domesticus); conditions: in vivo, iv, 0.32 mg/kg
Description: as §2

porcine whole blood [5] = test: Whole blood ex vivo model of inflammation, E. coli-induced cytokine release in porcine blood; assay type: cell-based; conditions: heat-inactivated E. coli
Description: as §1

porcine whole blood [6] = test: Adverse (IgG-Fc mediated) effects in nonactivated porcine whole blood; assay type: cell-based; conditions: absence of inflammatory stimuli
Description: as §1

porcine CD14 [7] = target: T1, porcine CD14; test: CD14 binding in flow cytometry, porcine whole blood (competition with FITC-conjugated Mil2); parameters: human monocyte and porcine granulocyte populations were selected based on the forward scatter-side scatter dot plot; endogenous in cells; host or cells: granulocytes in fresh porcine whole blood (EDTA); binding sites blocked (competition with FITC-conjugated Mil2 in binding to CD14) / direct binding to porcine granulocytes: dose or concentration left out as unconfirmed
Description: (§3) Fresh human or porcine whole blood was drawn into tubes containing the anticoagulants lepirudin (Refludan; Pharmion, Copenhagen, Denmark) or EDTA, respectively. Blood samples were preincubated for 10 min with Ab, #20 mg/ml anti-human CD14 Abs r18D11, 18D11 F(ab)92 (batch 2068, lot 1383), or isotype controls raNIP and mIgG1 F(ab)92 (lot 1501), or […] anti-porcine CD14 Abs rMil2, Mil2 (lot 1106), or the isotype controls 4770 RECOMBINANT ANTI-CD14 Abs Downloaded from University of Oslo, Library of Medicine and Health Science on Jan. 24, 2014 for IgG2/4 and mIgG2b, eculizumab (Soliris) and mIgG2b (lot 1631), respectively. Endotoxin-free Dulbecco phosphate buffered saline, PBS (Sigma-Aldrich), was used for diluting the Abs. Subsequently, blood samples were incubated for another 15 min in the presence of detection Ab, 10 mg/ml 18D11 (batch 719, lot 3110) or 150 mg/ml FITC-conjugated Mil2 (batch 1107). Their binding was detected either by using a secondary PEconjugated anti-mouse IgG or through direct FITC fluorescence. Erythrocytes were lysed using FACS Lysing solution (BD Biosciences, Franklin Lakes, N.J.; human blood) or a solution of 0.16 M ammonium chloride, 10 mM sodium bicarbonate, 0.12 mM EDTA (Tritiplex III) and 0.04% (v/v) paraformaldehyde (porcine blood). In subsequent flow cytometry analyses, human monocyte and porcine granulocyte populations were selected based on the forward scatter-side scatter dot plot, and CD14 binding was recorded as mean or median fluorescence intensity, respectively. In contrast to humans, porcine CD14 is constitutively expressed on mature granulocytes (32, 33). Fluorescence intensities in the presence of the fluorescently labeled Abs only were set to 100%. Flow cytometry analyses on human samples were performed using an LSRII and FACSDiva software version 5.0.3; porcine samples were analyzed on a FACSCalibur using Cell Quest Pro version 5.2.1 for data acquisition (all from BD Biosciences).

human whole blood [8] = test: Unwanted effects (complement activation, oxidative burst) in nonstimulated human whole blood; assay type: cell-based; conditions: 10 mg/ml Ab
Description: as §1

human whole blood [9] = test: Whole blood ex vivo model of inflammation, LPS-induced cytokine release in human blood; assay type: cell-based; parameters: Ab concentration at which maximum inhibitory effects were reached: unit not given here
Description: as §1

human CD14 = target: T2, human CD14 (Homo sapiens, UniProt P08571); test: CD14 binding in flow cytometry, human whole blood (displacement of 18D11 from monocytes)
T2 construct: endogenous in cells; host or cells: monocytes in fresh human whole blood (lepirudin)
T2 sequence (P08571 20-345): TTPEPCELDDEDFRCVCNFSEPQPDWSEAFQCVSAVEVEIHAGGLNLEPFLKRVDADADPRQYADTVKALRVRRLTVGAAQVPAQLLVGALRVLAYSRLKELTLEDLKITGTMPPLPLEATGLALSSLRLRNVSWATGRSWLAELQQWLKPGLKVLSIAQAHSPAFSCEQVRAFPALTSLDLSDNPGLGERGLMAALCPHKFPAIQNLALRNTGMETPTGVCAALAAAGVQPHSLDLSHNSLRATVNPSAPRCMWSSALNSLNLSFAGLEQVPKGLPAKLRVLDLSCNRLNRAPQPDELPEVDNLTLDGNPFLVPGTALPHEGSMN
Description: as §3, with “Endotoxin-free Dulbecco phosphate buffered saline, PBS (Sigma-Aldrich), was used for diluting the Abs. Subsequently, blood samples were incubated for another 15 min in the presence of detection Ab, 10 mg/ml 18D11 (batch 719, lot 3110) or 150 mg/ml FITC-conjugated Mil2 (batch 1107).” left out, “Erythrocytes were lysed using FACS Lysing solution (BD Biosciences, Franklin Lakes, N.J.; human blood) or a solution of 0.16 M ammonium chloride, 10 mM sodium bicarbonate, 0.12 mM EDTA (Tritiplex III) and 0.04% (v/v) paraformaldehyde (porcine blood).” left out, “In contrast to humans, porcine CD14 is constitutively expressed on mature granulocytes (32, 33).” left out

B1: OmCI: endotoxin-free recombinant bacterial OmCI (coversin), a 16.8-kDa protein, complement C5 inhibitor (protein, UniProt Q5YD59 19-168, looked up)
Complement inhibitor: DSESDCTGSEPVDAFQAFSEGKEAYVLVRSTDPKARDCLKGEPAGEKQDNTLPVMMTFKNGTDWASTDWTFTLDGAKVTATLGNLTQNREVVYDSQSHHCHVDKVEKEVPDYEMWMLDAGGLEVEVECCRQKLEELASGRNQMYPHLKDC
- inhibition of complement activation (complement activation): inhibit complement activation effectively
- IL-1b release (effect in words) (porcine whole blood [1]): not significantly reduced
- IL-8 release (effect in words) (porcine whole blood [1]): significantly reduced to almost baseline
- TNF release (effect in words) (porcine whole blood [1]): significantly reduced

B2: rMil2: recombinant anti-porcine CD14 mouse/human chimeric IgG2/4 Ab; VL SEQ ID NO:3, VH SEQ ID NO:4 (antibody, V domains shown)
VH: MGWSCIILFLVATATGVHSQVRLQQPGAELVRPGASVKLSCKASGYTFTTYWMNWVKQRPEDGLEWIGRIDPYDSETHYNQNFKDKAILTVDKSSSTAYMQLSSLTYEDSAVYYCTRKEGRQWGAYFDYWGQGTTLTVSSA
VL: MGWSCIILFLVATATGVHSDIVMTQSQKFMSTSVGDRVSVTCKASQYVGTNVAWYQQKPGQSPKALIQSASYRCSGVPDRFTGSGSGTDFTLTISNVQSEDLADYFCQQYNTYVTFGGGTKLELKR
modifications: human IgG2/4 constant regions
- reduction in leukocyte CD14 expression (saturation of CD14) (porcine CD14 [2]): 94%
- IL-1b reduction (area under the curve) [3]: 89%
- IL-6 reduction (area under the curve) [3]: 88%
- IL-8 reduction (area under the curve) [3]: 100%
- TNF reduction (area under the curve) [3]: 71%
- heart rate (effect in words) [4]: but not rMil2, caused an increase in heart rate
- block of IL-1b release compared with Mil2 (porcine whole blood [5]): as effective as Mil2
- inhibition of TNF release compared with Mil2 (porcine whole blood [5]): slightly less inhibitory
- IL-1b release (effect in words) (porcine whole blood [1]): significantly reduced the production
- IL-8 release (effect in words) (porcine whole blood [1]): seemed to be substantial, but did not reach statistical significance
- TNF release (effect in words) (porcine whole blood [1]): significantly reduced
- spontaneous IL-8 release (porcine whole blood [6]; 50 mg/ml): Neither IL-8 secretion nor platelet drop nor aggregation was observed
- platelet counts / platelet aggregation (porcine whole blood [6]; up to 71.4 mg/ml): Neither IL-8 secretion nor platelet drop nor aggregation was observed
- binding sites blocked (competition with FITC-conjugated Mil2 in binding to CD14) (porcine CD14 [7]; Ab, granulocytes in porcine whole blood): ~50%
- direct binding to porcine granulocytes (porcine CD14 [7]; not shown): saturated
- displacement of original clone Mil2 from CD14+ granulocytes (porcine CD14 [7]; porcine whole blood): effectively bound to and displaced the original clone

B3: r18D11: recombinant anti-human CD14 mouse/human chimeric IgG2/4 Ab; VL SEQ ID NO:1, VH SEQ ID NO:2 (antibody, V domains shown)
VH: MGWSCIILFLVATATGVHSEVQLVESGGGLMQPKGSLKLSCAASGFTFKTYALNWVRQAPGTGLEWVARIRSKSNNYTTYYADSVKDRFTISRDDSQNMLYLQMNNLKTEDTAMYYCVRPQSGTSFAYWGQGTLVTVSAA
VL: MGWSCIILFLVATATGVHSNIVLTQSPASLAVSLGQRATISCRASESVDSYGNSFMHWYQQKPGQPPKLLIYLASNLESGVPARFSGSGSRTDFTLTIDPVEADDVATYYCQQNNGDPYTFGGGTKLEIIR
modifications: human IgG2/4 constant regions
- monocyte oxidative burst (human whole blood [8]; flow cytometry): did not induce significant oxidative burst
- complement activation (human whole blood [8]; not shown): same low level of complement activation
- E. coli ultrapure LPS-induced release of IL-1b, TNF and IL-6 (human whole blood [9]; 100 ng/ml LPS, dose-dependent): inhibited
- Ab concentration at which maximum inhibitory effects were reached (human whole blood [9]; LPS-induced IL-1b, TNF, IL-6 release): 10
- 18D11 displaced from its binding sites on human monocytes (human CD14; 10 mg/ml r18D11 vs 10 mg/ml 18D11 (equimolar)): 50%
- binding to CD14 on human monocytes (competition with 18D11) (human CD14; human whole blood): dose-dependently outcompeted
